In patent US20200002434A1 (BIOSION, published 2020):

What follows are binders tested against T1, recombinant human ErbB2 extracellular domain (ErbB2-ECD) (human, UniProt P04626 23-652) (assay: capture ELISA, recombinant ErbB2-ECD).
T1 construct: extracellular domain; Coated on plates or used biotin-labeled in solution (capture ELISA); also called Human ErbB2-ECD; rhErbB2

EC50 [nM] | Binder
0.034 | 5F12.v2 humanized antibody (antibody, V domains shown, VH.v1/VL.1, back mutations 0/H38Q) VH: EVQLVQSGAEVKKPGSSVKVSCKASGYTFTSYTMHWIRQAPGQGLEWIGYINPSSSYTNYNQNFKDRATLTADKSTSTAYMELSSLRSEDTAVYYCARASSYSLDYWGQGTLVTVSS VL: DIQMTQSPSSLSASVGDRVTITCKASQDINKYIAWYQQKPGKGPKLLIHSTSTLYPGIPSRFSGSGSGKDYTFTISSLQPEDIATYYCLQYDNLLWTFGQGTKVEIK
0.028 | 5F12.v5 humanized antibody (antibody, V domains shown, VH.v1/VL.4, back mutations 0/I58V) VH: EVQLVQSGAEVKKPGSSVKVSCKASGYTFTSYTMHWIRQAPGQGLEWIGYINPSSSYTNYNQNFKDRATLTADKSTSTAYMELSSLRSEDTAVYYCARASSYSLDYWGQGTLVTVSS VL: DIQMTQSPSSLSASVGDRVTITCKASQDINKYIAWYQHKPGKGPKLLIHSTSTLYPGVPSRFSGSGSGKDYTFTISSLQPEDIATYYCLQYDNLLWTFGQGTKVEIK
0.032 | 5F12.v6 humanized antibody (antibody, V domains shown, VH.v1/VL.5, back mutations 0/K69T) VH: EVQLVQSGAEVKKPGSSVKVSCKASGYTFTSYTMHWIRQAPGQGLEWIGYINPSSSYTNYNQNFKDRATLTADKSTSTAYMELSSLRSEDTAVYYCARASSYSLDYWGQGTLVTVSS VL: DIQMTQSPSSLSASVGDRVTITCKASQDINKYIAWYQHKPGKGPKLLIHSTSTLYPGIPSRFSGSGSGTDYTFTISSLQPEDIATYYCLQYDNLLWTFGQGTKVEIK
0.026 | 5F12.v3 humanized antibody (antibody, V domains shown, VH.v1/VL.2, back mutations 0/G43A) VH: EVQLVQSGAEVKKPGSSVKVSCKASGYTFTSYTMHWIRQAPGQGLEWIGYINPSSSYTNYNQNFKDRATLTADKSTSTAYMELSSLRSEDTAVYYCARASSYSLDYWGQGTLVTVSS VL: DIQMTQSPSSLSASVGDRVTITCKASQDINKYIAWYQHKPGKAPKLLIHSTSTLYPGIPSRFSGSGSGKDYTFTISSLQPEDIATYYCLQYDNLLWTFGQGTKVEIK

Biological target: T1, recombinant human ErbB2 extracellular …
Assay: capture ELISA, recombinant ErbB2-ECD
Remark: another data set of the same source

Binder | EC50 [nM]
5G9.v1 humanized antibody (antibody, V domains shown, VH.v1/VL.v1, back mutations 0/0) VH: EVQLVQSGAEVKKPGSSVKVSCKTSGYTFSSYTIHWVRQAPGQGLEWIGYINPSSDYTAYNQKFRDRATLTADQSTNTAYMELSSLRSEDTAVYYCARASAFSLDFWGQGTLVTVSS VL: DIQMTQSPSSLSASVGDRVTITCKASHDIDRYIAWYQHKPGKGPKLLIHYTSTLQPGIPSRFSGSGSGRDYTLTISSLQPEDVATYYCLNYDNLLWTFGQGTKVEIK | 0.031
5G9.v4 humanized antibody (antibody, V domains shown, VH.v1/VL.3, back mutations 0/H49Y) VH: EVQLVQSGAEVKKPGSSVKVSCKTSGYTFSSYTIHWVRQAPGQGLEWIGYINPSSDYTAYNQKFRDRATLTADQSTNTAYMELSSLRSEDTAVYYCARASAFSLDFWGQGTLVTVSS VL: DIQMTQSPSSLSASVGDRVTITCKASHDIDRYIAWYQHKPGKGPKLLIYYTSTLQPGIPSRFSGSGSGRDYTLTISSLQPEDVATYYCLNYDNLLWTFGQGTKVEIK | 0.072
5G9.v2 humanized antibody (antibody, V domains shown, VH.v1/VL.1, back mutations 0/H38Q) VH: EVQLVQSGAEVKKPGSSVKVSCKTSGYTFSSYTIHWVRQAPGQGLEWIGYINPSSDYTAYNQKFRDRATLTADQSTNTAYMELSSLRSEDTAVYYCARASAFSLDFWGQGTLVTVSS VL: DIQMTQSPSSLSASVGDRVTITCKASHDIDRYIAWYQQKPGKGPKLLIHYTSTLQPGIPSRFSGSGSGRDYTLTISSLQPEDVATYYCLNYDNLLWTFGQGTKVEIK | 0.062
5G9.v5 humanized antibody (antibody, V domains shown, VH.v1/VL.4, back mutations 0/I58V) VH: EVQLVQSGAEVKKPGSSVKVSCKTSGYTFSSYTIHWVRQAPGQGLEWIGYINPSSDYTAYNQKFRDRATLTADQSTNTAYMELSSLRSEDTAVYYCARASAFSLDFWGQGTLVTVSS VL: DIQMTQSPSSLSASVGDRVTITCKASHDIDRYIAWYQHKPGKGPKLLIHYTSTLQPGVPSRFSGSGSGRDYTLTISSLQPEDVATYYCLNYDNLLWTFGQGTKVEIK | 0.013
5G9.v3 humanized antibody (antibody, V domains shown, VH.v1/VL.2, back mutations 0/G43V) VH: EVQLVQSGAEVKKPGSSVKVSCKTSGYTFSSYTIHWVRQAPGQGLEWIGYINPSSDYTAYNQKFRDRATLTADQSTNTAYMELSSLRSEDTAVYYCARASAFSLDFWGQGTLVTVSS VL: DIQMTQSPSSLSASVGDRVTITCKASHDIDRYIAWYQHKPGKVPKLLIHYTSTLQPGIPSRFSGSGSGRDYTLTISSLQPEDVATYYCLNYDNLLWTFGQGTKVEIK | 0.023

Further lines, results first:

EC50 [nM] | Binder
0.029 | 5G9.v12 humanized antibody (antibody, V domains shown, VH.5/VL.v1, back mutations I48M/0) VH: EVQLVQSGAEVKKPGSSVKVSCKTSGYTFSSYTIHWVRQAPGQGLEWMGYINPSSDYTAYNQKFRDRATLTADQSTNTAYMELSSLRSEDTAVYYCARASAFSLDFWGQGTLVTVSS VL: DIQMTQSPSSLSASVGDRVTITCKASHDIDRYIAWYQHKPGKGPKLLIHYTSTLQPGIPSRFSGSGSGRDYTLTISSLQPEDVATYYCLNYDNLLWTFGQGTKVEIK
0.053 | 5G9.v7 humanized antibody (antibody, V domains shown, VH.v1/VL.6, back mutations 0/Y71F) VH: EVQLVQSGAEVKKPGSSVKVSCKTSGYTFSSYTIHWVRQAPGQGLEWIGYINPSSDYTAYNQKFRDRATLTADQSTNTAYMELSSLRSEDTAVYYCARASAFSLDFWGQGTLVTVSS VL: DIQMTQSPSSLSASVGDRVTITCKASHDIDRYIAWYQHKPGKGPKLLIHYTSTLQPGIPSRFSGSGSGRDFTLTISSLQPEDVATYYCLNYDNLLWTFGQGTKVEIK
0.054 | 5G9.v9 humanized antibody (antibody, V domains shown, VH.2/VL.v1, back mutations L69I/0) VH: EVQLVQSGAEVKKPGSSVKVSCKTSGYTFSSYTIHWVRQAPGQGLEWIGYINPSSDYTAYNQKFRDRATITADQSTNTAYMELSSLRSEDTAVYYCARASAFSLDFWGQGTLVTVSS VL: DIQMTQSPSSLSASVGDRVTITCKASHDIDRYIAWYQHKPGKGPKLLIHYTSTLQPGIPSRFSGSGSGRDYTLTISSLQPEDVATYYCLNYDNLLWTFGQGTKVEIK
0.165 | 5G9.v8 humanized antibody (antibody, V domains shown, VH.1/VL.v1, back mutations A67V/0) VH: EVQLVQSGAEVKKPGSSVKVSCKTSGYTFSSYTIHWVRQAPGQGLEWIGYINPSSDYTAYNQKFRDRVTLTADQSTNTAYMELSSLRSEDTAVYYCARASAFSLDFWGQGTLVTVSS VL: DIQMTQSPSSLSASVGDRVTITCKASHDIDRYIAWYQHKPGKGPKLLIHYTSTLQPGIPSRFSGSGSGRDYTLTISSLQPEDVATYYCLNYDNLLWTFGQGTKVEIK
0.081 | 5G9.v11 humanized antibody (antibody, V domains shown, VH.4/VL.v1, back mutations N76S/0) VH: EVQLVQSGAEVKKPGSSVKVSCKTSGYTFSSYTIHWVRQAPGQGLEWIGYINPSSDYTAYNQKFRDRATLTADQSTSTAYMELSSLRSEDTAVYYCARASAFSLDFWGQGTLVTVSS VL: DIQMTQSPSSLSASVGDRVTITCKASHDIDRYIAWYQHKPGKGPKLLIHYTSTLQPGIPSRFSGSGSGRDYTLTISSLQPEDVATYYCLNYDNLLWTFGQGTKVEIK
0.044 | 5G9.v6 humanized antibody (antibody, V domains shown, VH.v1/VL.5, back mutations 0/R69T) VH: EVQLVQSGAEVKKPGSSVKVSCKTSGYTFSSYTIHWVRQAPGQGLEWIGYINPSSDYTAYNQKFRDRATLTADQSTNTAYMELSSLRSEDTAVYYCARASAFSLDFWGQGTLVTVSS VL: DIQMTQSPSSLSASVGDRVTITCKASHDIDRYIAWYQHKPGKGPKLLIHYTSTLQPGIPSRFSGSGSGTDYTLTISSLQPEDVATYYCLNYDNLLWTFGQGTKVEIK
0.029 | 5G9.v10 humanized antibody (antibody, V domains shown, VH.3/VL.v1, back mutations Q73K/0) VH: EVQLVQSGAEVKKPGSSVKVSCKTSGYTFSSYTIHWVRQAPGQGLEWIGYINPSSDYTAYNQKFRDRATLTADKSTNTAYMELSSLRSEDTAVYYCARASAFSLDFWGQGTLVTVSS VL: DIQMTQSPSSLSASVGDRVTITCKASHDIDRYIAWYQHKPGKGPKLLIHYTSTLQPGIPSRFSGSGSGRDYTLTISSLQPEDVATYYCLNYDNLLWTFGQGTKVEIK
